Laboratory results from paper PMC7457537, “Influence of the amino-terminal sequence on the structure and function of HIV integrase” (Retrovirology, 2020).

Columns and labels:
Details in all cases: both partners purified
[1] = target: T1, HIV-1 integrase with native N-terminal phenylalanine (IN 1F), full-length, wild type (HIV-1 (NL4-3)); test: AUC; sedimentation equilibrium, 4 °C, same data and buffer as the monomer-dimer fit; attempted fit of a dimer-tetramer equilibrium: tetramer to dimers
T1 chain: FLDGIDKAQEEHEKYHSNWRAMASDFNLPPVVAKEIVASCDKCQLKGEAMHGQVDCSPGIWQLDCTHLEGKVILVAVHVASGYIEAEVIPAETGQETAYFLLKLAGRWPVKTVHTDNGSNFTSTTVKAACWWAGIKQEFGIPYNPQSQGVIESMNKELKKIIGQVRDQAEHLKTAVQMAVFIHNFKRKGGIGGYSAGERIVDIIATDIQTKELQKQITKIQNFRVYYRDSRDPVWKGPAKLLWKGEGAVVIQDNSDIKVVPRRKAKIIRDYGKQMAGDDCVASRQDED

[2] = target: T1, HIV-1 integrase with native N-terminal …; test: AUC; sedimentation equilibrium, 4 °C, 20 mM HEPES-NaOH pH 7.5, 1 M NaCl, 7 mM CHAPS, 10 µM ZnOAc2, 10 µM β-mercaptoethanol; global fit at 16, 20, 24 krpm (SEDPHAT); dimer to monomers
[3] = target: T1, HIV-1 integrase with native N-terminal …; test: SEC-MALS; Superdex 200 10/300, 25 °C, 20 mM HEPES-NaOH pH 7.5, 500 mM-1 M NaCl, 7 mM CHAPS, 10 µM ZnOAc2, 10 µM β-mercaptoethanol; eluted concentrations ~8-10 µM (IN 1F, IN MF); self-association

B1: HIV-1 integrase with native N-terminal phenylalanine (IN 1F), full-length, wild type (enzyme)
chain: FLDGIDKAQEEHEKYHSNWRAMASDFNLPPVVAKEIVASCDKCQLKGEAMHGQVDCSPGIWQLDCTHLEGKVILVAVHVASGYIEAEVIPAETGQETAYFLLKLAGRWPVKTVHTDNGSNFTSTTVKAACWWAGIKQEFGIPYNPQSQGVIESMNKELKKIIGQVRDQAEHLKTAVQMAVFIHNFKRKGGIGGYSAGERIVDIIATDIQTKELQKQITKIQNFRVYYRDSRDPVWKGPAKLLWKGEGAVVIQDNSDIKVVPRRKAKIIRDYGKQMAGDDCVASRQDED
modifications: Zn2+ bound in the NTD (H12, H16, C40, C43); native N-terminal Phe1; monomer-dimer equilibrium. Limits: the paper gives F1 as the start and full length; the integrase chain follows RT (ends at 1147) …
[1]
  Kd: > 1000 µM
[2]
  Kd: 59.8 µM
[3]
  stoichiometry N: 2
